From patent EP4806514A2 (Lepu Biopharma Co., Ltd., dated 2025)
Changes are numbered by the printed parent chain.

What was measured:
[1] = molecular target: T1, human CDH17, full length, expressed on cells (HEK293-hCDH17); AsPC-1, HCT-8, AGS, LoVo, KATO III, HT-29 tumor … (human, UniProt Q12864 23-832); experiment: flow cytometry, AsPC-1, AGS, KATO III and HT-29 cells
T1 construct: also called human CDH17 expressed on tumor cells
T1 sequence: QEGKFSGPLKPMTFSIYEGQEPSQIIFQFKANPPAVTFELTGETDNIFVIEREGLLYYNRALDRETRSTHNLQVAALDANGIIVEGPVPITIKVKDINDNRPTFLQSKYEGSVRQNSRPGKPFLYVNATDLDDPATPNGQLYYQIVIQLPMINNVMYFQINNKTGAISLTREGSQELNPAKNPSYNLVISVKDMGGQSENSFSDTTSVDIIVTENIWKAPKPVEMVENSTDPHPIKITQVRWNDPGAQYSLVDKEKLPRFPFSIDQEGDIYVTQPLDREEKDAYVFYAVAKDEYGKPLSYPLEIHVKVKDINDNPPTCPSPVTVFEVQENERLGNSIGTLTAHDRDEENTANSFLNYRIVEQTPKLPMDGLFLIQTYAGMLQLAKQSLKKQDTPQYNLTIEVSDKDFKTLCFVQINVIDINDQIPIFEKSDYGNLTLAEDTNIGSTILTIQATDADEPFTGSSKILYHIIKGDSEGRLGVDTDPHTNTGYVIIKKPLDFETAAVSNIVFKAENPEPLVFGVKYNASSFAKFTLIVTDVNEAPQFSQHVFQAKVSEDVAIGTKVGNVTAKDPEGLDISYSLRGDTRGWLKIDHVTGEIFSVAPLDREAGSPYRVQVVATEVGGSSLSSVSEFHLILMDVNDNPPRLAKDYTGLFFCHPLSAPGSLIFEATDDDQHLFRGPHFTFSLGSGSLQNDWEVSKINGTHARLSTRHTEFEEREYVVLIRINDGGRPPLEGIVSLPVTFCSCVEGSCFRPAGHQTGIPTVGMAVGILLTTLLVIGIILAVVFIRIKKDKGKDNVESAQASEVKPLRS

[2] = molecular target: T2, hCDH17-his (full length extracellular domain of human CDH17, Q23-M787, his tag at the C-terminal) (human, UniProt Q12864 23-787); experiment: SPR (Biacore 8K), antibody captured on Protein A chip, hCDH17-his injected
T2 construct: Limits of the construct (UniProt Q12864, Q23-M787, C-terminal his tag); also called human CDH17-his protein; human CDH17 protein
T2 sequence: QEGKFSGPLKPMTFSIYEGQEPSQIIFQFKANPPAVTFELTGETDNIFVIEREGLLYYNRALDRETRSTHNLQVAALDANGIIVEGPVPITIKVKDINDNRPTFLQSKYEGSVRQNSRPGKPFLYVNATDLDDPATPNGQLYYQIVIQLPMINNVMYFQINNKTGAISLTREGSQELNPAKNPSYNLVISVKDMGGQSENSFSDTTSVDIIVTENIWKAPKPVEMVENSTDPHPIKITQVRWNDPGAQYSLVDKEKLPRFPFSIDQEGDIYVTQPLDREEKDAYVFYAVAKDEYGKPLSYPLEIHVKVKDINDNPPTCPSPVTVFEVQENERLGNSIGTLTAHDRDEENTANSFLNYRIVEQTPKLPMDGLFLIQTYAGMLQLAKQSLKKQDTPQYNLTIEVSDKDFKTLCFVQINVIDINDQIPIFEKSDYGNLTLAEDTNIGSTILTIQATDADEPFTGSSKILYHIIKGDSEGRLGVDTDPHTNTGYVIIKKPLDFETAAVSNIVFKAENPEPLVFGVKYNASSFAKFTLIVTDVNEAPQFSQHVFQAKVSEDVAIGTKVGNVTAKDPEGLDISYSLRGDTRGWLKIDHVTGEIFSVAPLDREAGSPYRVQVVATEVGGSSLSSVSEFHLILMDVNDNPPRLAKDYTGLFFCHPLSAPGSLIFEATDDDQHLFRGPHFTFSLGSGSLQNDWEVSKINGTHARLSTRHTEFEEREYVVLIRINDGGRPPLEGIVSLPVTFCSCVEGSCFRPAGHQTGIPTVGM

[3] = molecular target: T1, human CDH17, full length, expressed on …; experiment: flow cytometry, AsPC-1 cells
[4] = molecular target: T1, human CDH17, full length, expressed on …; experiment: flow cytometry, AGS cells

B1: 29D2D7-z19p3-DXd (antibody, V domains shown)
VH: QVQLVQSGAEVKKPGASVKVSCKASGYTFTDYDMHWVKQAPGQGLEWIGGFDPESAGTVYNLRFKDKATLTADKSTSTAYMELRSLRSEDTAVYYCARKGYYSVSSPFTYWGQGTLVTVSS
VL: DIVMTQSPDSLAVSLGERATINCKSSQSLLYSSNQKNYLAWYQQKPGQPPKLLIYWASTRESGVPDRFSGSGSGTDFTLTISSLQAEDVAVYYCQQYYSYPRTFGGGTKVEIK
modifications: MC-GGFG-DXd (deruxtecan) conjugated to the antibody, DAR around 7.50-7.90; sites not given
notes: also called 29D2D7-z19-MC-GGFG-DXd
- binding result [1]: binds

B2: 29H8D3-z3 (antibody, V domains shown)
VH: QVQLVQSGAEVKKPGASVKVSCKASGYTFTDHTIHWVRQAPGQGLEWMGYIYPRDGYTKYNEKFKDRVTMTTDTSTSTAYMELRSLRSDDTAVYYCARFYYGYWYFDVWGQGTTVTVSS
VL: DIVMTQSPLSLPVTPGEPASISCRSSKSLLRSNGNTYLYWFLQKPGQSPQVLIYRMSNLASGVPDRFSGSGSGTDFTLKISRVEAEDVGVYYCMQHLEYPFTFGQGTKLEIK
notes: Humanized variable regions fused to human IgG1 constant region
- binding result [2]: binds
- binding result [3]: binds

B3: 29H8D3-z9 (antibody, V domains shown)
VH: B2 VH with V37M, M48I, V68A
VL: B2 VL
notes: Humanized, human IgG1 constant region
- binding result [2]: binds
- binding result [3]: binds

B4: 29H8D3-z6 (antibody, V domains shown)
VH: B2 VH with M48I, V68A
VL: B2 VL
notes: as for B3
- binding result [2]: binds
- binding result [3]: binds

B5: 155B11C6-z3 (antibody, V domains shown)
VH: QVQLVQSGAEVKKPGASVKVSCKASGYTFTSYTMHWVRQAPGQGLEWMGYIDPKSDYNYYNQKFKDRVTMTRDTSISTAYMELSRLRSDDTAVYYCARGFFKGYFDVWGQGTTVTVSS
VL: EIVLTQSPGTLSLSPGERATLSCSVSSSISSSNLHWYQQKPGQAPRPWIYGTSNLASGVPDRFSGSGSGTDYTLTISRLEPEDFAVYYCQQWTSYPFTFGQGTKLEIK
notes: Humanized, human IgG1 constant region; also called 155B11C6 HU-VH1-0 / HU-VL1-2
- binding result [2]: binds
- binding result [4]: binds

B6: 155B11C6-z7 (antibody, V domains shown)
VH: B5 VH with M48I, V68A, M70L
VL: B5 VL
notes: Humanized, human IgG1 constant region; also called 155B11C6 HU-VH1-2 / HU-VL1-2
- binding result [2]: binds
- binding result [4]: binds

B7: 155B11C6-z4 (antibody, V domains shown)
VH: B5 VH
VL: B5 VL with A44S, D71S
notes: Humanized, human IgG1 constant region; also called 155B11C6 HU-VH1-0 / HU-VL1-3
- binding result [2]: binds
- binding result [4]: binds
